Data on 1 molecule can be found in patent US20200140562A1 (Innovent, published 2020).

Read-outs that look alike come from different tables or passages of the source.

Test [1] deals with T1, human OX40 on cells (CHO-hOX40, 293HEK-hOX40, Jurkat-hOX40, activated primary CD4+ T cells) (human, UniProt P43489 29-277).
T1 construct: whole, on cells; The cell type is told in each assay; also called CHO-OX40
T1 sequence (looked up): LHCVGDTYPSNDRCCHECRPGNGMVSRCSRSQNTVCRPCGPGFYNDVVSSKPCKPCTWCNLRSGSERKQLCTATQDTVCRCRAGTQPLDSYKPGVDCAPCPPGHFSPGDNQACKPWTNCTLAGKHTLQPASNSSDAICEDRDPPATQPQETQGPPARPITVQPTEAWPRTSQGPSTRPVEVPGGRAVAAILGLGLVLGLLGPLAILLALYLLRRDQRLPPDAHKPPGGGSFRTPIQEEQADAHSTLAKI
In words: flow cytometry, CHO-hOX40. In general terms: Flow cytometry measures light scatter and fluorescence of single cells or particles in a stream.

In test [2] the target is T1, human OX40 on cells (CHO-hOX40, …). Briefly: flow cytometry, CHO-hOX40. This is another data set of the same source.
Test [3] has the same target. Briefly: flow cytometry, CHO-hOX40, 25 nM.
For test [4] the target is unchanged. In words: flow cytometry, CHO-hOX40, 200 nM.
Test [5] has the same target. Briefly: flow cytometry, CHO-hOX40, 3.125 nM.
Test [6] has the same target. In words: flow cytometry, CHO-hOX40, 3.125 nM. The source holds these as a separate data set.
Test [7] has the same target. In words: flow cytometry, CHO-hOX40, 1.5625 nM.
For test [8] the target is unchanged. Briefly: flow cytometry, CHO-hOX40, 0.78125 nM.
The target is the same in test [9]. In words: flow cytometry, CHO-hOX40, 0.09765625 nM.
Test [10] shares this target. Briefly: flow cytometry, CHO-hOX40, 0.024414063 nM.
Test [11] shares this target. Briefly: flow cytometry, CHO-hOX40, 0.024414063 nM. This is another data set of the same source.
Test [12] has the same target. In words: flow cytometry, CHO-hOX40, 100 nM blocker, competitor OX40L-hFc-fluorescein.
Test [13] shares this target. In words: flow cytometry competition on CHO cells expressing human OX40; blocked ligand OX40L-mFc (60 ug/ml), detected with anti-murine Fc-FITC.

B1: OX40L (control reagent; recombinant OX40L, Acro Biosystems) (ligand, UniProt P23510 51-183, looked up)
chain: QVSHRYPRIQSIKVQFTEYKKEKGFILTSQKEDEIMKVQNNSVIINCDGFYLISLKGYFSQEVNISLHYQKDEEPLFQLKKVRSVNSLMVASLTYKDKVYLNVTTDNTSLDDFHVNGGELILIHQNPGEFCVL
notes: may be the same reagent as OX40L-hFc
The EC50 is the concentration needed to bring the measured effect to its halfway point. Higher therefore signals a need for much substance. With B1, the EC50 in [1] was 5.33 nM; in test [2], 12.4 nM. In addition, the MFI was found to be 2.8e+06 MFI in test [3]; 2.08e+06 MFI in test [4]; 932000 MFI in test [5]; 342000 MFI in [6]; 554000 MFI in test [7]; 317000 MFI in [8]. The MFI in test [9] was 14500 MFI; in test [10], 12800 MFI; in test [11], 7970 MFI. Also, the “MFI of OX40L signal on CHO-OX40 cells” value in [12] was determined as 19300 MFI. Also, in [13], the “IC50 (read off the curve)” value is around 20 nM.
